# Measured values: patent US20230349903A1, “ASSAYS AND REAGENTS FOR CHARACTERIZATION OF MHCI PEPTIDE BINDING” (priority 2020, published 2023)
# Where no end group is shown, it is not given here. [ ]: non-standard residue; d: D form. code J = not defined here
# How the values were obtained:
# C*02:02 [1] = target: T1, C*02:02 (Homo sapiens, UniProt P10321, A176E/A235T/A330V/A97T/C350S/D114A/D33Y/G40S/L171W/L180W/L218V/M285V/M309V/M331V/N104K/P208H/Q277E/Q291P/R45H/S101N/S123Y/S297R/S48A/T187E/T329A/T363A/V319A); assay: ELISA of small scale MHCI refold (anti-HLA W6/32 capture, anti-B2M detection); type: binding; settings: for S/N ELISA value: C*02:02, 1.0 μg/mL MHCI, no peptide control as background; for normalized ELISA OD: C*02:02, 1 μg/mL MHCI, normalized to no peptide control
# Procedure: Recombinant HLA alleles and B2M were over-expressed in E. coli, purified from inclusion bodies, and stored under denaturing conditions (6M Guanidine HCL, 25 mM Tris pH 8) in −80° C. as described above. In a 200 μL reaction, the peptide (0.01 mM, per well), oxidized and reduced glutathione (0.5 mM and 4.0 mM, respectively), recombinant HLA alleles (0.03 mg/mL) and B2M (0.01 mg/mL) were all combined within a 96-well plate. Refold screens were performed with five different peptides for each HLA of interest as described above (Table 3). and the MHCI complex was incubated at 4° C. for 3-5 days to allow refolding. Refolded samples were analyzed by ELISA, and the highest performing peptide was selected for further analysis. All data was analyzed relative to the negative control refold, which was performed in the absence of peptide (labeled NP). HLA-A*02:01 refolded with the CMV pp65 viral epitope was used as a positive control. […]
# (§1) A 384-well Nunc Maxisorp plate (ThermoFisher Scientific, Waltham, MA) was coated with 25 μL/well of mouse IgG2a anti-HLA ABC clone W6/32 (Novus Biological, Littleton, Co.) at 8 μg/mL in coating buffer (0.05 sodium carbonate pH 9.6). After overnight incubation at 4° C., the plate was washed 3 times with wash buffer (PBS, 0.5% Tween 20). The plate was then blocked with 50 μL/well of Block buffer (PBS, 0.5% BSA, 10 ppm Proclin) and incubated at room temperature (RT) with agitation for 1 hour. […] The plate was washed six times and 25 IL of biotinylated mouse IgG1 anti-human B2M (BioLegend, San Diego, CA) at 100 ng/mL in assay diluent was added to each well. After a 1 hour incubation at RT and six washes, 25 μL/well of Streptavidin-Horseradish Peroxidase (GE, Marlborough, MA) was added to the plate and incubated for 30 min at RT. The color reaction was developed with TMB peroxidase substrate (Moss, Pasadena, MD) at RT for 15 min, and the reaction was stopped with 1M phosphoric acid. The absorbance was measured at a wavelength of […] with a reference at 620 nm. Refolded MHC monomers without peptide or irrelevant peptide were used as the negative controls for each allele to normalize the signal.
# (§2) Recombinant HLA alleles and B2M were over-expressed in E. coli, purified from inclusion bodies, and stored under denaturing conditions (6M Guanidine HCl, 25 mM Tris pH 8) in −80° C. as described above. In a 200 μL reaction, the peptide (0.01 mM, per well), oxidized and reduced glutathione (0.5 mM and 4.0 mM, respectively), recombinant HLA alleles (0.03 mg/mL) and B2M (0.01 mg/mL) were all combined in a 96-well plate. Refolds were performed with five different peptides for each HLA of interest as described above (Table 3), and the MHCI complex was incubated at 4° C. for 3-5 days to allow refolding. MHCI complex refolds were also performed in the absence of a peptide and used as the negative control to calculate the signal to noise (S/N) for the experimental peptides. Given that there should have been minimal properly refolded complex in the absence of a peptide, these samples provided the overall background of the assay to calculate the S/N value. HLA-A*02:01 refolded with the CMV pp65 viral epitope was used as a positive control. Peptides yielding the highest signal to noise ratio (S/N) were selected for further analysis.
# Two different ELISA assays were evaluated to optimize the sensitivity of the assay. In the first assay format, the refolded MHCI was captured with anti-B2M antibody and detected with pan ABC anti-HLA antibody (clone W6/32). In the second assay format, MHCI was captured with the pan ABC anti-HLA antibody (clone W6/32) and detected with the anti-B2M antibody. In both assays, a 384-well Nunc Maxisorp plate (Thermo Fisher Scientific, Waltham, MA) was coated with 25 μL/well of capture antibody, mouse IgG1 anti-human B2M (BioLegend, San Diego, CA) or mouse IgG2a anti-HLA ABC clone W6/32 (Novus Biological, Littleton, Co.), at 8 μg/mL in coating buffer (0.05 sodium carbonate pH 9.6). […]
# C*14:02 = C*14:02 (Homo sapiens, UniProt P10321, A176E/A330V/A35S/A97T/C350S/D114A/D33S/L171W/L180R/L218V/M285V/M309V/M331V/P208H/Q277E/Q291P/R121W/R243W/S123F/S297R/S48A/T329A/T363A/V319A); settings: IEDB value, purified MHC/direct/fluorescence, read-out: dissociation constant KD; cited from earlier work
# A*26:01 = A*26:01 (Homo sapiens, UniProt P04439, A114D/A173T/A270S/D101N/D185E/E277Q/E87N/F33Y/G231S/I121R/I218V/K168Q/L180W/L300P/L318F/P208A/P217A/Q86R/Q94H/R138Q/S129P/T187R/T323A/T345S/V100A/V358M); settings: IEDB value, purified MHC/direct/fluorescence, read-out: dissociation constant KD (~EC50); cited from earlier work
# B*35:03 [2] = target: T2, B*35:03 (Homo sapiens, UniProt P01889, A329T/A93T/A95T/C349S/D201E/D98Y/E176V/E187L/E204Q/E69T/I218V/K202T/L119I/Q94N/R155S/R180L/S121R/S35A/S48A/T118I/V127L/V306I/V36M/Y140F/Y91F); settings: IEDB value, cellular MHC/mass spectrometry; cited from earlier work
# B*35:03 [3] = target: T2, B*35:03; assay: ELISA of small scale MHCI refold (anti-HLA W6/32 capture, anti-B2M detection); type: binding; parameters: inferred from enzymatic biotinylation; made in house; host or cells: Escherichia coli; settings: for S/N ELISA value: B*35:03, 1.0 μg/mL MHCI, no peptide control as background; for normalized ELISA OD (signal to background): B*35:03, 1 μg/mL MHCI, normalized to no peptide control
# Procedure: Recombinant HLA alleles and B2M were over-expressed in E. coli, purified from inclusion bodies, and stored under denaturing conditions (6M Guanidine HCL, 25 mM Tris pH 8) in −80° C. as described above. In a 200 μL reaction, the peptide (0.01 mM, per well), oxidized and reduced glutathione (0.5 mM and 4.0 mM, respectively), recombinant HLA alleles (0.03 mg/mL) and B2M (0.01 mg/mL) were all combined within a 96-well plate. Refold screens were performed with five different peptides for each HLA of interest as described above (Table 3). and the MHCI complex was incubated at 4° C. for 3-5 days to allow refolding. Refolded samples were analyzed by ELISA, and the highest performing peptide was selected for further analysis. All data was analyzed relative to the negative control refold, which was performed in the absence of peptide (labeled NP). HLA-A*02:01 refolded with the CMV pp65 viral epitope was used as a positive control.
# Formation of stable conditional MHCI complexes upon refolding with the redesigned peptides were identified by ELISA as described above. […] The original peptide (containing no UV amino acid substitution) was used as a positive control. All peptides used here were purchased from JPT (www.jpt.com) or ELIM Biopharm (www.elimbio.com).
# as §1, §2
# Two different ELISA assays were evaluated to optimize the sensitivity of the assay. In the first assay format, the refolded MHCI was captured with anti-B2M antibody and detected with pan ABC anti-HLA antibody (clone W6/32). In the second assay format, MHCI was captured with the pan ABC anti-HLA antibody (clone W6/32) and detected with the anti-B2M antibody. […]
# B*18:01 = B*18:01 (Homo sapiens, UniProt P01889, A329T/A93T/A95T/C349S/D201E/D54G/D98Y/E176V/E187T/E204Q/E69T/K202T/Q94N/R155S/R180L/S121R/V306I/Y140S/Y195H/Y33H/Y91S); settings: IEDB value, purified MHC/competitive/radioactivity, read-out: half maximal inhibitory concentration (IC50); cited from earlier work
# C*02:02 [4] = target: T1, C*02:02; settings: IEDB value, cellular MHC/mass spectrometry; cited from earlier work
# HLA-A*02:03 = HLA-A*02:03 (Homo sapiens, UniProt P04439, A173T/D140Y/D185E/D98H/E277Q/G131W/G231S/I119V/I121R/I166T/I218V/L180W/L300P/L318F/N151K/N90K/P208A/P217A/Q86G/Q94H/R138H/R169H/T345S); assay: ELISA of small scale MHCI refold (anti-HLA W6/32 capture, anti-B2M detection); type: binding; parameters: inferred from enzymatic biotinylation; made in house; host or cells: Escherichia coli; settings: for S/N ELISA value: A*02:03, 1.0 μg/mL MHCI, no peptide control as background; for normalized ELISA OD (signal to background): A*02:03, 1 μg/mL MHCI, normalized to no peptide control
# Procedure: Recombinant HLA alleles and B2M were over-expressed in E. coli, purified from inclusion bodies, and stored under denaturing conditions (6M Guanidine HCL, 25 mM Tris pH 8) in −80° C. as described above. In a 200 μL reaction, the peptide (0.01 mM, per well), oxidized and reduced glutathione (0.5 mM and 4.0 mM, respectively), recombinant HLA alleles (0.03 mg/mL) and B2M (0.01 mg/mL) were all combined within a 96-well plate. Refold screens were performed with five different peptides for each HLA of interest as described above (Table 3). and the MHCI complex was incubated at 4° C. for 3-5 days to allow refolding. […] All data was analyzed relative to the negative control refold, which was performed in the absence of peptide (labeled NP). HLA-A*02:01 refolded with the CMV pp65 viral epitope was used as a positive control.
# A 384-well Nunc Maxisorp plate (ThermoFisher Scientific, Waltham, MA) was coated with 25 μL/well of mouse IgG2a anti-HLA ABC clone W6/32 (Novus Biological, Littleton, Co.) at 8 μg/mL in coating buffer (0.05 sodium carbonate pH 9.6). After overnight incubation at 4° C., the plate was washed 3 times with wash buffer (PBS, 0.5% Tween 20). The plate was then blocked with 50 μL/well of Block buffer (PBS, 0.5% BSA, 10 ppm Proclin) and incubated at room temperature (RT) with agitation for 1 hour. After washing the plate 3 times with wash buffer, 25 μL/well of the unpurified refolded MHC complex at 40 μg/mL with and without peptides in assay diluent (PBS, 0.5% BSA+0.05% Tween20+10 ppm Proclin) was added to the plate and incubated for 1 hour at RT. The plate was washed six times and 25 IL of biotinylated mouse IgG1 anti-human B2M (BioLegend, San Diego, CA) at 100 ng/mL in assay diluent was added to each well. After a 1 hour incubation at RT and six washes, 25 μL/well of Streptavidin-Horseradish Peroxidase (GE, Marlborough, MA) was added to the plate and incubated for 30 min at RT. The color reaction was developed with TMB peroxidase substrate (Moss, Pasadena, MD) at RT for 15 min, and the reaction was stopped with 1M phosphoric acid. The absorbance was measured at a wavelength of 405 nm with a reference at 620 nm. […]
sequence,measurement,setting,value
FAAEAJKL (FAAEA[code J]KL; not fully specified; reading uncertain) [Peptide C0202-03-03],S/N ELISA value,C*02:02 [1],highest S/N value
same,S/N ELISA value,C*02:02 [1]; listed as C0202-02-03,8
same,normalized ELISA OD,C*02:02 [1],highest normalized ELISA OD value
same,normalized ELISA OD,C*02:02 [1]; listed as C0202-02-03,8
TYLQSLASL [Peptide C1402-02],Kd,C*14:02,0.1 nM
DVVPMVTQM [Peptide A2601-03],Kd,A*26:01,3 nM
TPANYFHVL [Peptide B3503-04],ligand presentation,B*35:03 [2],Positive
same,S/N ELISA value,B*35:03 [3],highest OD value
same,normalized ELISA OD (signal to background),B*35:03 [3],highest OD value
DTITNVTTM [Peptide A2601-05],Kd,A*26:01,4 nM
YYRYPTGESY [Peptide C1402-03],Kd,C*14:02,0.1 nM
FAAJAQKL (FAAXAQKL; not fully specified) [Peptide C0202-03-02],S/N ELISA value,C*02:02 [1],6
same,normalized ELISA OD,C*02:02 [1],6
DEFKPIVQY [Peptide B1801-02],IC50,B*18:01,3.9 nM
SYMSTFPLF [Peptide C1402-01],Kd,C*14:02,0.1 nM
IPAEGRVAL [Peptide B3503-02],ligand presentation,B*35:03 [2],Positive
DAVPFPISL [Peptide C0202-01],ligand presentation,C*02:02 [4],Positive
KIRDLLPVM [Peptide C0202-04],ligand presentation,C*02:02 [4],Positive
FAAEAQKL [Peptide C0202-02],S/N ELISA value,C*02:02 [1],~8
same,normalized ELISA OD,C*02:02 [1],~8
same,ligand presentation,C*02:02 [4],Positive
FAAEAQKJ (FAAEAQKX; not fully specified) [Peptide C0202-03-04],S/N ELISA value,C*02:02 [1],very low S/N ELISA values
same,normalized ELISA OD,C*02:02 [1],very low normalized ELISA values
SYMSTFPLF [Peptide C0202-05],ligand presentation,C*02:02 [4],Positive
TJANYFHVL (TXANYFHVL; not fully specified) [Peptide B3503-04-01],S/N ELISA value,B*35:03 [3],very low S/N ELISA values
same,normalized ELISA OD (signal to background),B*35:03 [3],very low normalized ELISA values
FJAEAQKL (FXAEAQKL; not fully specified) [Peptide C0202-03-01],S/N ELISA value,C*02:02 [1],very low S/N ELISA values
same,normalized ELISA OD,C*02:02 [1],very low normalized ELISA values
FMYEGDTPL [Peptide C1402-04],Kd,C*14:02,0.1 nM
IAKSGTSEF (FAAEAQKL) [Peptide C0202-03],S/N ELISA value,C*02:02 [1],highest S/N value
same,normalized ELISA OD,C*02:02 [1],highest normalized OD value
same,ligand presentation,C*02:02 [4],Positive
TPAJYFHVL (TPA[code J]YFHVL; not fully specified; reading uncertain) [Peptide B3503-04-02],S/N ELISA value,B*35:03 [3],highest S/N value
same,normalized ELISA OD (signal to background),B*35:03 [3],highest normalized ELISA OD value
FEFTSFFY [Peptide B1801-01],IC50,B*18:01,0.1 nM
ETTNWLWAF [Peptide A2601-02],Kd,A*26:01,2 nM
FMYJDFHFI [Peptide A0203-02-02],S/N ELISA value,HLA-A*02:03,highest S/N value
same,normalized ELISA OD (signal to background),HLA-A*02:03,highest normalized ELISA OD value
APEEHPVLL [Peptide B3503-03],ligand presentation,B*35:03 [2],Positive
FJYSDFHFI [Peptide A0203-02-01],S/N ELISA value,HLA-A*02:03,very low S/N ELISA values
same,normalized ELISA OD (signal to background),HLA-A*02:03,very low normalized ELISA values
YPYPYPHTAAFSKLIYL [Peptide B3503-05],ligand presentation,B*35:03 [2],Positive
